The record followed here is patent US20120027684A1 (IMMATICS BIOTECHNOLOGIES, published 2012).

In the assay the target is HLA A*0201 (human). Put plainly: ELISA-based peptide-HLA binding method (Sylvester-Hvid et al., 2002).

Turning to LLGATCMFV (also called cyclin peptide CCN-001) [CCN-001], the binding result was “binds”.
